One series deals with SALDan (Alteromonas naphthalenivorans, UniProt F5Z5S7). The experiment in a line: Kinetics assay of wild-type recombinant SALDan (NADH appearance at 340 nm). Particulars: for App Vmax / App kcat / Km: aldehyde varied at NAD^+ 100 μM, enzyme 0.1 μM, for NAD^+: SAL fixed 50 μM; for Km: NAD^+ 0–500 μM, read-out: App Km. The format is biochemical. How it is done:
(§1) The activity of the purified proteins was determined using SAL as a substrate. A reaction volume of 500 μL was prepared in a microfuge tube containing purified SALDan (0.1 μM), SAL (100 μM), and NAD^+ (100 μM) dissolved in 50 mM HEPES (pH 7.5) containing 150 mM NaCl. The SALDan activity was monitored as the rate of appearance of NADH at 340 nm spectrophotometrically. The specific activity of the enzyme (units.mg^−1.min^−1) was expressed as the amount of enzyme required to produce 1 μM of NADH under the assay conditions. The influence of pH on the activity was determined using the protocol described above, with the exception of replacing the […] buffer with 50 mM sodium acetate (pH 3.0–5.0), 50 mM 2-(N-morpholino)ethanesulfonic acid (pH 5.0–7.5), 50 mM HEPES (pH 8.0–8.5), 50 mM glycine (pH 9.0–10.0), or 50 mM sodium phosphate (pH 11.0)[52]. All assays were performed at the optimal temperature. To determine the influence of temperature on the enzymatic activity, the reactions were performed at 15, 20, 25, 30, 35, 40, and 45 °C, respectively.
(§2) For kinetic studies of aldehydes, the initial velocities of the enzymatic reactions were examined by varying the concentrations of various aromatic as well as aliphatic aldehydes in the presence of NAD^+ (100 μM) and the enzyme (0.1 μM) under optimal conditions. For substrates that absorb at 340 nm, thus interfering with the calculation of the initial rate, their molar coefficients (ε) were calculated as described previously[64] and are presented in Table S1. The apparent kinetic parameters were calculated using the equation: […]
(§3) The apparent kinetic parameters for NAD^+ were determined at a fixed concentration of SAL (50 μM) and a varying concentration of NAD^+ (0–500 μM). The apparent Km and Vmax values were calculated by using the equation: […]
(§4) All the activity data were determined by three separate experiments with at least three technical replicates.

Substrate in series [1]: NC(=O)c1ccc[n+]([C@@H]2O[C@H](COP(=O)([O-])OP(=O)(O)OC[C@H]3O[C@@H](n4cnc5c(N)ncnc54)[C@H](O)[C@@H]3O)[C@@H](O)[C@H]2O)c1
The experiment in a line: Kinetics assay of SALDan mutant E175A. It counts as biochemical, Alteromonas naphthalenivorans. Particulars: other: E175A mutant; SAL varied at NAD^+ 100 μM; NAD^+ varied at SAL 50 μM.
Text: (§5) The primers used for the single amino acid mutant were as follows: N149A, forward primer, 5′-ATAGCACCGTGGGCCGGGCCTATTGTATTA-3′; reverse primer, 5′-TAATACAATAGGCCCGGCCCACGGTGCTAT-3′; V153A, forward primer, 5′-AATGGGCCTATTGTATTAGCGGCTCGG-3′; reverse primer, 5′-CCGAGCCGCTAATACAATAGGCCCATT-3′; E175A, forward primer, 5′-[…]-3′, reverse primer, 5′-GTTGGGACAGTCTTCCAGCCC-3′; E175A, forward primer, 5′-ATGCTCCACCAAATTGGGCAC-3′; reverse primer, 5′-TTTAGGACTTACTTCTGAAGCTTTAAA-3′. The PCR was performed using Pfu polymerase, and the cycling parameters were: 95 °C for 5 min (one cycle), 95 °C for 30 s, and 68 °C for 12 min (12 cycles). After amplification, the PCR mixture was digested with DpnI and then transformed into E. coli BL21(DE3) by electroporation. The mutants were confirmed by DNA sequencing.
as §1, §2, §3, §4

Substrate in series [2]: O=Cc1ccccc1O
The experiment in a line: Kinetics assay of SALDan mutant E175A. Particulars: other: E175A mutant; SAL varied at NAD^+ 100 μM; NAD^+ varied at SAL 50 μM. It counts as biochemical, Alteromonas naphthalenivorans.
Text: as §5, §1, §2, §3, §4

Substrate in series [3]: NC(=O)c1ccc[n+]([C@@H]2O[C@H](COP(=O)([O-])OP(=O)(O)OC[C@H]3O[C@@H](n4cnc5c(N)ncnc54)[C@H](O)[C@@H]3O)[C@@H](O)[C@H]2O)c1
Put plainly: Kinetics assay of SALDan mutant V153A. It counts as biochemical, Alteromonas naphthalenivorans. Particulars: other: V153A mutant; SAL varied at NAD^+ 100 μM; NAD^+ varied at SAL 50 μM.
Text: as §5, §1, §2, §3, §4

Substrate in series [4]: O=Cc1ccccc1O
The experiment in a line: Kinetics assay of SALDan mutant V153A. It counts as biochemical, Alteromonas naphthalenivorans. Particulars: other: V153A mutant; SAL varied at NAD^+ 100 μM; NAD^+ varied at SAL 50 μM.
Text: as §5, §1, §2, §3, §4

Substrate in series [5]: NC(=O)c1ccc[n+]([C@@H]2O[C@H](COP(=O)([O-])OP(=O)(O)OC[C@H]3O[C@@H](n4cnc5c(N)ncnc54)[C@H](O)[C@@H]3O)[C@@H](O)[C@H]2O)c1
The experiment in a line: Kinetics assay of SALDan mutant N149A. The format is biochemical, Alteromonas naphthalenivorans. To be noted: other: N149A mutant; SAL varied at NAD^+ 100 μM; NAD^+ varied at SAL 50 μM.
Text: as §5, §1, §2, §3, §4

Substrate in series [6]: O=Cc1ccccc1O
The experiment in a line: Kinetics assay of SALDan mutant N149A. It counts as biochemical, Alteromonas naphthalenivorans. To be noted: other: N149A mutant; SAL varied at NAD^+ 100 μM; NAD^+ varied at SAL 50 μM.
Text: as §5, §1, §2, §3, §4

[7] abbreviates: wild-type, “—” means not observed, read-out: App Ki (substrate inhibition).

Positions count from the first letter of the chain named. Names may count otherwise. Read-outs that look alike come from different tables or passages of the source.

Chain of SALDan (F5Z5S7 entry or part of it): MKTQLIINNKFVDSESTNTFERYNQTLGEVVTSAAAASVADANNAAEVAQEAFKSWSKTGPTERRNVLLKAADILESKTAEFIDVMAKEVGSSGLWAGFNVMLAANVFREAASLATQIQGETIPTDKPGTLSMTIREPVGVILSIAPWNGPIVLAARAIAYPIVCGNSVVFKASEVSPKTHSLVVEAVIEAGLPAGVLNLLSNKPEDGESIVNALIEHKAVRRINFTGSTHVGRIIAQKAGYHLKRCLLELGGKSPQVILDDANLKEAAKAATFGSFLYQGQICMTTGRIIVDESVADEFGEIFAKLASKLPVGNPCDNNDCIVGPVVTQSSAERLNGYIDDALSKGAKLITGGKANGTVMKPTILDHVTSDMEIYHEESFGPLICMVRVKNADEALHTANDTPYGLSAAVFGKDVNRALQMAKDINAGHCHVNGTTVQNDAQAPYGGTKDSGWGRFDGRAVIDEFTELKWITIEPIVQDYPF

On to `C=O` [Formaldehyde], for which, on SALDan (wild-type), the “App Vmax” value is 3.3 ± 0.7 U/mg, the App kcat worked out at 8.6 ± 2.2 s⁻¹ and the Km is 12400 ± 1820 µM.
In the case of `O=Cc1ccc2ccccc2c1` [2-Naphthaldehyde], the Ki on SALDan (setting [7]) turned out to be 249 ± 22.5 µM.
As to `O=Cc1cccc(Cl)c1` [3-Chlorobenzaldehyde], at SALDan (setting [7]), the Ki turned out to be 124 ± 20.1 µM.
Consider `CCCC=O` [Butyraldehyde], for which, at SALDan (wild-type), the “App Vmax” value is 5.9 ± 1.0 U/mg, the App kcat amounted to 14.3 ± 2.8 s⁻¹ and the Km was 3200 ± 235 µM.
With `O=Cc1ccc([N+](=O)[O-])cc1` [4-Nitrobenzaldehyde], the Ki on SALDan (setting [7]) came to 266 ± 35.8 µM.
In the case of `O=Cc1ccccc1Cl` [2-Chlorobenzaldehyde], at SALDan, the Ki is 356 ± 40.1 µM.
As to `O=Cc1ccccc1` [Benzaldehyde], the Ki on SALDan is 563 ± 87.6 µM.
Consider `O=Cc1ccc(Cl)cc1` [4-Chlorobenzaldehyde], for which the Ki at SALDan (setting [7]) was found to be 132 ± 18.9 µM.

B1: SALDan E175A (Alteromonas naphthalenivorans; E175A) (protein)
chain: MKTQLIINNKFVDSESTNTFERYNQTLGEVVTSAAAASVADANNAAEVAQEAFKSWSKTGPTERRNVLLKAADILESKTAEFIDVMAKEVGSSGLWAGFNVMLAANVFREAASLATQIQGETIPTDKPGTLSMTIREPVGVILSIAPWNGPIVLAARAIAYPIVCGNSVVFKASAVSPKTHSLVVEAVIEAGLPAGVLNLLSNKPEDGESIVNALIEHKAVRRINFTGSTHVGRIIAQKAGYHLKRCLLELGGKSPQVILDDANLKEAAKAATFGSFLYQGQICMTTGRIIVDESVADEFGEIFAKLASKLPVGNPCDNNDCIVGPVVTQSSAERLNGYIDDALSKGAKLITGGKANGTVMKPTILDHVTSDMEIYHEESFGPLICMVRVKNADEALHTANDTPYGLSAAVFGKDVNRALQMAKDINAGHCHVNGTTVQNDAQAPYGGTKDSGWGRFDGRAVIDEFTELKWITIEPIVQDYPF
With B1, in series [1], the Km was 105.6 ± 10.3 µM, the Vmax was 60.6 µmol/min/mg, the kcat is 158 ± 17.2 s⁻¹ and the kcat/Km stood at 1.5e+06 ± 400000 M⁻¹ s⁻¹. Moreover, in series [2], the Km amounted to 15.1 ± 2.6 µM, the Vmax turned out to be 32.3 µmol/min/mg, the kcat came to 82.2 ± 10.1 s⁻¹ and the kcat/Km worked out at 5.4e+06 ± 900000 M⁻¹ s⁻¹.

B2: SALDan V153A (Alteromonas naphthalenivorans; V153A) (protein)
chain: B1 chain with V153A, A175E
Consider B2, for which, in series [3], the Km is 44.9 ± 4.2 µM, the maximum rate (Vmax) was found to be 103 µmol/min/mg, the kcat came out at 254 ± 21.5 s⁻¹ and the catalytic efficiency (kcat/Km) was determined as 5.7e+06 ± 500000 M⁻¹ s⁻¹. Besides, in series [4], the Km is 4.6 ± 0.7 µM, the Vmax is 59.5 µmol/min/mg, the kcat was determined as 154 ± 20.4 s⁻¹ and the kcat/Km turned out to be 3.34e+07 ± 4.7e+06 M⁻¹ s⁻¹.

B3: SALDan N149A (Alteromonas naphthalenivorans; N149A) (protein)
chain: B1 chain with N149A, A175E
Consider B3, for which, in series [5], the Km was determined as 52.3 ± 6.1 µM, the Vmax was 83.5 µmol/min/mg, the kcat came to 209 ± 25.6 s⁻¹ and the kcat/Km turned out to be 4e+06 ± 800000 M⁻¹ s⁻¹. In addition, in series [6], the Km worked out at 9.5 ± 1.3 µM, the Vmax was 38.6 µmol/min/mg, the kcat was 100 ± 16.8 s⁻¹ and the kcat/Km stood at 1.06e+07 ± 1.3e+06 M⁻¹ s⁻¹.

By Km is commonly meant the concentration of substrate that gives half-maximal velocity. In general, Vmax refers to the rate approached at saturating substrate. The term kcat denotes the maximal rate divided by the concentration of active sites. What is called kcat/Km is the turnover number divided by the Michaelis constant.

These data come from article PMC5324060, “Evolutionary, computational, and biochemical studies of the salicylaldehyde dehydrogenases in the naphthalene degradation pathway” (Scientific Reports, 2017).
